Experimental data reported in publication PMC6001950.

Target: human S100A9 protein (human) (UniProt P06702)
Experiment: other fluorescence titration; intrinsic tryptophan fluorescence of 2 uM S100A9; S100A12 added at 0.4-7 uM; excitation 295 nm, emission read at 345 nm; one binding site model

Kd: 1300 nM
B1: human S100A12 protein (natural protein)
chain: MTKLEEHLEGIVNIFHQYSVRKGHFDTLSKGELKQLLTKELANTIKNIKDKAVIDEIFQGLDANQDEQVDFQEFISLVAIALKAAHYHTHKE
